Test results reported in IntAct's records for PubMed 29892012.

B1: Genetic suppressor element 1 (Homo sapiens), Q14687 (parent)
chain: MKGMSHEPKSPSLGMLSTATRTTATVNPLTPSPLNGALVPSGSPATSSALSAQAAPSSSFAAALRKLAKQAEEPRGSSLSSESSPVSSPATNHSSPASTPKRVPMGPIIVPPGGHSVPSTPPVVTIAPTKTVNGVWRSESRQDAGSRSSSGGRERLIVEPPLPQEKAGGPAIPSHLLSTPYPFGLSPSSVVQDSRFPPLNLQRPVHHVVPPSTVTEDYLRSFRPYHTTDDLRMSSLPPLGLDPATAAAYYHPSYLAPHPFPHPAFRMDDSYCLSALRSPFYPIPTPGSLPPLHPSAMHLHLSGVRYPPELSHSSLAALHSERMSGLSAERLQMDEELRREREREREREREREADREREKEREREREKEREQEKEREREKERERELERQREQRAREKELLAAKALEPSFLPVAELHGLRGHATEERGKPSEQLTPTRAEKLKDAGLQAPKPVQHPLHPVPTPHHTVPSLISNHGIFSLPSSSAATALLIQRTNEEEKWLARQRRLRQEKEDRQSQVSEFRQQVLEQHLDMGRPPVPAEAEHRPESTTRPGPNRHEPGGRDPPQHFGGPPPLISPKPQLHAAPTALWNPVSLMDNTLETRRAESHSLHSHPAAFEPSRQAAVPLVKVERVFCPEKAEEGPRKREPAPLDKYQPPPPPPREGGSLEHQPFLPGPGPFLAELEKSTQTILGQQRASLPQAATFGELSGPLKPGSPYRPPVPRAPDPAYIYDEFLQQRRRLVSKLDLEERRRREAQEKGYYYDLDDSYDESDEEEVRAHLRCVAEQPPLKLDTSSEKLEFLQLFGLTTQQQKEELVAQKRRKRRRMLRERSPSPPTIQSKRQTPSPRLALSTRYSPDEMNNSPNFEEKKKFLTIFNLTHISAEKRKDKERLVEMLRAMKQKALSAAVADSLTNSPRDSPAVSLSEPATQQASLDVEKPVGVAASLSDIPKAAEPGKLEQVRPQELSRVQELAPASGEKARLSEAPGGKKSLSMLHYIRGAAPKDIPVPLSHSTNGKSKPWEPFVAEEFAHQFHESVLQSTQKALQKHKGSVAVLSAEQNHKVDTSVHYNIPELQSSSRAPPPQHNGQQEPPTARKGPPTQELDRDSEEEEEEDDEDGEDEEEVPKRKWQGIEAVFEAYQEHIEEQNLERQVLQTQCRRLEARHYSLSLTAEQLSHSVAELRSQKQKMVSERERLQAELDHLRKCLALPAMHWPRGYLKGYPR
partner: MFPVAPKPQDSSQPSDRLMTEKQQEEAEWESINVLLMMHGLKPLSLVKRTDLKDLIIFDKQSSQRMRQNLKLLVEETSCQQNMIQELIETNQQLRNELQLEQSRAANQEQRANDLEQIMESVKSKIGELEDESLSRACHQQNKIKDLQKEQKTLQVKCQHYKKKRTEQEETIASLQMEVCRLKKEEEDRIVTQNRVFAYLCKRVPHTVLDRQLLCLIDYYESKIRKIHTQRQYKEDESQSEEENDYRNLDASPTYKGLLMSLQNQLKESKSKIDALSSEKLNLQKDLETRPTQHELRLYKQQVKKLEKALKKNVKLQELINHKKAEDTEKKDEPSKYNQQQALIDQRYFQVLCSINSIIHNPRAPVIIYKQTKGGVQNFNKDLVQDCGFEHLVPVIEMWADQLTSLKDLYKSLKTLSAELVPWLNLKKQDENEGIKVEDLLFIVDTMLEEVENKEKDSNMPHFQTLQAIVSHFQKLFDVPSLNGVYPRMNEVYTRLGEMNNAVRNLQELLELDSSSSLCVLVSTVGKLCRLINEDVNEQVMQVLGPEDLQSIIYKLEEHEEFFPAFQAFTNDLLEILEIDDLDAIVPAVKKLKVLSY
B2: Protein VAC14 homolog (Homo sapiens), Q08AM6 (parent)
chain: MNPEKDFAPLTPNIVRALNDKLYEKRKVAALEIEKLVREFVAQNNTVQIKHVIQTLSQEFALSQHPHSRKGGLIGLAACSIALGKDSGLYLKELIEPVLTCFNDADSRLRYYACEALYNIVKVARGAVLPHFNVLFDGLSKLAADPDPNVKSGSELLDRLLKDIVTESNKFDLVSFIPLLRERIYSNNQYARQFIISWILVLESVPDINLLDYLPEILDGLFQILGDNGKEIRKMCEVVLGEFLKEIKKNPSSVKFAEMANILVIHCQTTDDLIQLTAMCWMREFIQLAGRVMLPYSSGILTAVLPCLAYDDRKKSIKEVANVCNQSLMKLVTPEDDELDELRPGQRQAEPTPDDALPKQEGTASGGPDGSCDSSFSSGISVFTAASTERAPVTLHLDGIVQVLNCHLSDTAIGMMTRIAVLKWLYHLYIKTPRKMFRHTDSLFPILLQTLSDESDEVILKDLEVLAEIASSPAGQTDDPGPLDGPDLQASHSELQVPTPGRAGLLNTSGTKGLECSPSTPTMNSYFYKFMINLLKRFSSERKLLEVRGPFIIRQLCLLLNAENIFHSMADILLREEDLKFASTMVHALNTILLTSTELFQLRNQLKDLKTLESQNLFCCLYRSWCHNPVTTVSLCFLTQNYRHAYDLIQKFGDLEVTVDFLAEVDKLVQLIECPIFTYLRLQLLDVKNNPYLIKALYGLLMLLPQSSAFQLLSHRLQCVPNPELLQTEDSLKAAPKSQKADSPSIDYAELLQHFEKVQNKHLEVRHQRSGRGDHLDRRVVL
partner: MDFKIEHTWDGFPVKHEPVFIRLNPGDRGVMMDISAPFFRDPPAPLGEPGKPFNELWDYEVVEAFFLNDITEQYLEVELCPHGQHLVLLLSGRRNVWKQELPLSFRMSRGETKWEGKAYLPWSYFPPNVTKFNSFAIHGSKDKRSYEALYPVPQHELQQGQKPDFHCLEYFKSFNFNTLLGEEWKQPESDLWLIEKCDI
B3: Protein VAC14 homolog (Homo sapiens), Q08AM6 (parent)
chain: B2 chain
partner: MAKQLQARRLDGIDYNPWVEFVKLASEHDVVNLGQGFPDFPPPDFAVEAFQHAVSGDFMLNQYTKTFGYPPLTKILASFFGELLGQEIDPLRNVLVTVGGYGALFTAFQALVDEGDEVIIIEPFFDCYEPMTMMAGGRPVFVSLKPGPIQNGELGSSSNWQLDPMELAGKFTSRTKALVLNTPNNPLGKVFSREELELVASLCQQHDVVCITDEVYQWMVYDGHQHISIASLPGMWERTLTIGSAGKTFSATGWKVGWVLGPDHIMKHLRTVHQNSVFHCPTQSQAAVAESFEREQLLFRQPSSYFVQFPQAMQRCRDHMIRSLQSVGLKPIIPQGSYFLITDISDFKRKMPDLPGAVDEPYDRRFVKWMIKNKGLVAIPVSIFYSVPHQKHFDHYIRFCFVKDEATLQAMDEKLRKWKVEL
B4: Genetic suppressor element 1 (Homo sapiens), Q14687 (parent)
chain: B1 chain
partner: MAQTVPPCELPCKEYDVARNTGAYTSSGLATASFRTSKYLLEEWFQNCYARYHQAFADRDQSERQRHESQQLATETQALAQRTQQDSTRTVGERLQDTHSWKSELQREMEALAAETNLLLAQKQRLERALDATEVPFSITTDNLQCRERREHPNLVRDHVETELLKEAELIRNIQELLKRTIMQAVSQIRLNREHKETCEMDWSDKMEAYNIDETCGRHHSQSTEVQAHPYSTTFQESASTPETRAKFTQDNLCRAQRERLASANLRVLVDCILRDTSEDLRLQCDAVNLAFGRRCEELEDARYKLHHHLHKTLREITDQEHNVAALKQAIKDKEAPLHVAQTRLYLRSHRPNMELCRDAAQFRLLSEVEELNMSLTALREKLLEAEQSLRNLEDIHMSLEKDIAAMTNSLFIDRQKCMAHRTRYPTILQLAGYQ
B5: Genetic suppressor element 1 (Homo sapiens), Q14687 (parent)
chain: B1 chain
partner: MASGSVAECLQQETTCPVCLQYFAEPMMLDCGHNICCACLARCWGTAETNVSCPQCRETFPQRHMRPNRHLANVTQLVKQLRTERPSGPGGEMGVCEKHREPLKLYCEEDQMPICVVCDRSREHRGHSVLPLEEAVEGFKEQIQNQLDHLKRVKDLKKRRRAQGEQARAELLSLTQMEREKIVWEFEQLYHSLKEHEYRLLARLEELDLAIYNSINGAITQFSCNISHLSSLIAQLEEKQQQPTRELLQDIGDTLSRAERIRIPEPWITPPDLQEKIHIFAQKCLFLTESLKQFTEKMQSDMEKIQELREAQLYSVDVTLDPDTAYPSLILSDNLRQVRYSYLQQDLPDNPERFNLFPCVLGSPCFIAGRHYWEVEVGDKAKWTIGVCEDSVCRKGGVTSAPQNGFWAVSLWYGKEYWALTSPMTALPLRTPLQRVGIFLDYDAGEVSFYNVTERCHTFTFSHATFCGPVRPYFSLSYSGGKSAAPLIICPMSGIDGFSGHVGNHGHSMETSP
B6: Protein VAC14 homolog (Homo sapiens), Q08AM6 (parent)
chain: B2 chain
partner: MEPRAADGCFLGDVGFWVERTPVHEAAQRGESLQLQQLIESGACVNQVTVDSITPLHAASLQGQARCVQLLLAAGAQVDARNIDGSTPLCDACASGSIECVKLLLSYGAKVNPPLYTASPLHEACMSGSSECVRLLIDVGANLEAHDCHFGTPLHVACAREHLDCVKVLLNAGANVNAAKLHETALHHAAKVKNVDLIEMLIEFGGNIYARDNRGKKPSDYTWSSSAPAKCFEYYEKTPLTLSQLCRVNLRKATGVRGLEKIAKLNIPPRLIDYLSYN

Variants of: B1
Settings: with cep70_human CEP70, Q8NHQ1

**Q.** R503Q was tested. Which “effect of a mutation on the interaction” value did it give?
**A.** Its value is “with no effect”.

Variants of: B2
Settings: with cd033_human C4orf33, Q8N1A6

**Q.** Which “effect of a mutation on the interaction” value does the source give for A127S here?
**A.** Its value is “with no effect”.

Variants of: B3
Settings: with kat1_human KYAT1, Q16773

**Q.** With A127S as the variant, how does the “effect of a mutation on the interaction” value read?
**A.** Its value is “with no effect”.

Variants of: B4
Settings: with tekt4_human TEKT4, Q8WW24

**Q.** For R503Q, which “effect of a mutation on the interaction” value is on record?
**A.** Its value is “with no effect”.

Variants of: B4
Settings: with tekt4_human TEKT4, Q8WW24
Remark: another data set of the same source

**Q.** How did the “effect of a mutation on the interaction” value turn out when E368K was run?
**A.** Its value is “with no effect”.

Variants of: B5
Settings: with tri27_human TRIM27, P14373

**Q.** How did the “effect of a mutation on the interaction” value turn out when E368K was run?
**A.** Its value is “with no effect”.

Variants of: B5
Settings: with tri27_human TRIM27, P14373
Remark: another data set of the same source

**Q.** For R503Q, which “effect of a mutation on the interaction” value is on record?
**A.** Its value is “with no effect”.

Variants of: B6
Settings: with asb13_human ASB13, Q8WXK3

**Q.** For A127S, which “effect of a mutation on the interaction” value is on record?
**A.** The value was “with no effect”.
